Abundance fitness data for 45 variants are collected here from the Human Domainome abundance scans (Beltran et al. 2025).

± gives the uncertainty stated by the source.

The labels stand for the following.
B1: Unconventional myosin-Ie, residues 1051 to 1108; numbered along this chain, Q12965 (parent)
chain: PQVPQCKALYAYDAQDTDELSFNANDIIDIIKEDPSGWWTGRLRGKQGLFPNNYVTKI

In the data set the parent is B1. Nature of the data set: abundance fitness (aPCA) (normalised: wild type 0, dead -1); higher = more abundant; growth selection in yeast, the domain comes from the species named. The note with it: Homo sapiens.
On to PQVPQCKALYAYDAQDTDELSFNANDIIDIIKEDPSGWWTGRLRVKQGLFPNNYVTKI, for which the abundance fitness is -0.762 ± 0.095. With PQVPQCKALYAYDAQDTDELSFNANDIIDIIKEDPSGWWTGRLRDKQGLFPNNYVTKI the figure was -0.075 ± 0.076; with PQVPQCKALYAYDAQDTDELSFNANDIIDIIKEDPSGWWTGRLRIKQGLFPNNYVTKI, -0.639 ± 0.21; with PQVPQCKALYAYDAQDTDELSFNANDIIDIIKEDPSGWWTGRLRAKQGLFPNNYVTKI, -0.319 ± 0.07. PQVPQCKALYAYDAQDTDELSFNANDIIDIIKEDPSGWWTGRLREKQGLFPNNYVTKI: the abundance fitness is -0.058 ± 0.035. Turning to PQVPQCKALYAYDAQDTDELSFNANDIIDIIKEDPSGWWTGRLRTKQGLFPNNYVTKI, the abundance fitness was -0.353 ± 0.088. As to PQVPQCKALYAYDAQDTDELSFNANDIIDIIKEDPSGWWTGRLRMKQGLFPNNYVTKI, the abundance fitness is -0.161 ± 0.082.

Take PQVPQCKALYAYDAQDTDELSFNANDIIDIIKEDPSGWWTGRLRCKQGLFPNNYVTKI: the abundance fitness was -0.303 ± 0.086.

For PQVPQCKALYAYDAQDTDELSFNANDIIDIIKEDPSGWWTGRLRNKQGLFPNNYVTKI, the abundance fitness was found to be 0.06 ± 0.08. Turning to PQVPQCKALYAYDAQDTDELSFNANDIIDIIKEDPSGWWTGRLRFKQGLFPNNYVTKI, the abundance fitness is -0.321 ± 0.11. For the variant PQVPQCKALYAYDAQDTDELSFNANDIIDIIKEDPSGWWTGRLRRKQGLFPNNYVTKI, the abundance fitness was -0.337 ± 0.043. For PQVPQCKALYAYDAQDTDELSFNANDIIDIIKEDPSGWWTGRLRLKQGLFPNNYVTKI, the abundance fitness was -0.416 ± 0.038. Under PQVPQCKALYAYDAQDTDELSFNANDIIDIIKEDPSGWWTGRLRPKQGLFPNNYVTKI stands -0.977 ± 0.49.

As to PQVPQCKALYAYDAQDTDELSFNANDIIDIIKEDPSGWWTGRLRQKQGLFPNNYVTKI, the abundance fitness is -0.149 ± 0.083. In the case of PQVPQCKALYAYDAQDTDELSFNANDIIDIIKEDPSGWWTGRLRWKQGLFPNNYVTKI, the abundance fitness was -0.702 ± 0.17. Turning to PQVPQCKALYAYDAQDTDELSFNANDIIDIIKEDPSGWWTGRLRHKQGLFPNNYVTKI, the abundance fitness was -0.1 ± 0.07.

As to PQVPQCKALYAYDAQDTDELSFNANDIIDIIKEDPSGWWYGRLRGKQGLFPNNYVTKI, the abundance fitness is -0.07 ± 0.041.

PQVPQCKALYAYDAQDTDELSFNANDIIDIIKEDPSGWWTGTLRGKQGLFPNNYVTKI: the abundance fitness was -0.114 ± 0.063. For the variant PQVPQCKALYAYDAQDTDELSFNANDIIDIIKEDPSGWWTGKLRGKQGLFPNNYVTKI, the abundance fitness came to 0.104 ± 0.076. On to PQVPQCKALYAYDAQDTDELSFNANDIIDIIKEDPSGWWTGPLRGKQGLFPNNYVTKI, for which the abundance fitness was -0.897 ± 0.15. Consider PQVPQCKALYAYDAQDTDELSFNANDIIDIIKEDPSGWWTGGLRGKQGLFPNNYVTKI, for which the abundance fitness was -0.125 ± 0.058. For PQVPQCKALYAYDAQDTDELSFNANDIIDIIKEDPSGWWTGDLRGKQGLFPNNYVTKI, the abundance fitness is -0.254 ± 0.072. With PQVPQCKALYAYDAQDTDELSFNANDIIDIIKEDPSGWWTGFLRGKQGLFPNNYVTKI, the abundance fitness is -0.193 ± 0.28. PQVPQCKALYAYDAQDTDELSFNANDIIDIIKEDPSGWWTGWLRGKQGLFPNNYVTKI: the abundance fitness is -0.06 ± 0.059. Under PQVPQCKALYAYDAQDTDELSFNANDIIDIIKEDPSGWWTGQLRGKQGLFPNNYVTKI stands -0.028 ± 0.038; under PQVPQCKALYAYDAQDTDELSFNANDIIDIIKEDPSGWWTGNLRGKQGLFPNNYVTKI, -0.005 ± 0.065. With PQVPQCKALYAYDAQDTDELSFNANDIIDIIKEDPSGWWTGELRGKQGLFPNNYVTKI the figure was -0.049 ± 0.049; with PQVPQCKALYAYDAQDTDELSFNANDIIDIIKEDPSGWWTGALRGKQGLFPNNYVTKI, -0.013 ± 0.039; with PQVPQCKALYAYDAQDTDELSFNANDIIDIIKEDPSGWWTGLLRGKQGLFPNNYVTKI, -0.161 ± 0.065. Under PQVPQCKALYAYDAQDTDELSFNANDIIDIIKEDPSGWWTGMLRGKQGLFPNNYVTKI stands -0.394 ± 0.14.

On to PQVPQCKALYAYDAQDTDELSFNANDIIDIIKEDPSGWWTGHLRGKQGLFPNNYVTKI, for which the abundance fitness is -0.15 ± 0.1. For the variant PQVPQCKALYAYDAQDTDELSFNANDIIDIIKEDPSGWWTGYLRGKQGLFPNNYVTKI, the abundance fitness was -0.366 ± 0.16. With PQVPQCKALYAYDAQDTDELSFNANDIIDIIKEDPSGWWTGILRGKQGLFPNNYVTKI the figure was -0.356 ± 0.16. Regarding PQVPQCKALYAYDAQDTDELSFNANDIIDIIKEDPSGWWTGRWRGKQGLFPNNYVTKI, the abundance fitness is -0.706 ± 0.11. PQVPQCKALYAYDAQDTDELSFNANDIIDIIKEDPSGWWTGRRRGKQGLFPNNYVTKI: the abundance fitness is -0.417 ± 0.041. As to PQVPQCKALYAYDAQDTDELSFNANDIIDIIKEDPSGWWTGRYRGKQGLFPNNYVTKI, the abundance fitness is -0.328 ± 0.08. For PQVPQCKALYAYDAQDTDELSFNANDIIDIIKEDPSGWWTGRKRGKQGLFPNNYVTKI, the abundance fitness is -0.453 ± 0.075. Turning to PQVPQCKALYAYDAQDTDELSFNANDIIDIIKEDPSGWWTGRMRGKQGLFPNNYVTKI, the abundance fitness was found to be 0.101 ± 0.076. PQVPQCKALYAYDAQDTDELSFNANDIIDIIKEDPSGWWTGRARGKQGLFPNNYVTKI: the abundance fitness was -0.123 ± 0.04. Under PQVPQCKALYAYDAQDTDELSFNANDIIDIIKEDPSGWWTGRTRGKQGLFPNNYVTKI stands -0.113 ± 0.061; under PQVPQCKALYAYDAQDTDELSFNANDIIDIIKEDPSGWWTGRQRGKQGLFPNNYVTKI, -0.621 ± 0.079; under PQVPQCKALYAYDAQDTDELSFNANDIIDIIKEDPSGWWTGRGRGKQGLFPNNYVTKI, -0.762 ± 0.07. On to PQVPQCKALYAYDAQDTDELSFNANDIIDIIKEDPSGWWTGRCRGKQGLFPNNYVTKI, for which the abundance fitness was -0.267 ± 0.11.

Regarding PQVPQCKALYAYDAQDTDELSFNANDIIDIIKEDPSGWWTGRIRGKQGLFPNNYVTKI, the abundance fitness is 0.062 ± 0.099.

For PQVPQCKALYAYDAQDTDELSFNANDIIDIIKEDPSGWWTGRNRGKQGLFPNNYVTKI, the abundance fitness is -0.331 ± 0.069.
